Results as given in publication PMC6644155.

Molecular target: T1, Thyroid hormone receptor beta (THRβ), recombinant (Homo sapiens, UniProt P10828 1-461)
T1 sequence: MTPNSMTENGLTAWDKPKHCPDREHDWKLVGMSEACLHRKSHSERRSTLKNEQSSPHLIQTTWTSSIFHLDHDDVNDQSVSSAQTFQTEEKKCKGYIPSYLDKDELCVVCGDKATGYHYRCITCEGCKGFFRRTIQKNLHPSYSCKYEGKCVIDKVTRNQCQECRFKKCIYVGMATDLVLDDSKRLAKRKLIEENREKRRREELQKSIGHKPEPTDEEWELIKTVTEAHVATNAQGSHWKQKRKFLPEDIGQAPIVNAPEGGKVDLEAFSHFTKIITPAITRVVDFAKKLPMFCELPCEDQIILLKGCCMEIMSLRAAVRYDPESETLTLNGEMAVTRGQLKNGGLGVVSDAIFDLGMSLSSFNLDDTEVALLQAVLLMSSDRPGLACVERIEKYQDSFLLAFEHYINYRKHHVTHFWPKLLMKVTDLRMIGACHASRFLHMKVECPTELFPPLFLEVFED
Test: EMSA

B1: rs717-G (dsDNA)
DNA 1: CCCGGTCAGGACCACGGTGACCATGAGGGCG
DNA 2: CGCCCTCATGGTCACCGTGGTCCTGACCGGG
  binding result: binds
